The text below walks through data of publication PMC5481773, “Structural insights into the function of ZRANB3 in replication stress response” (Nature Communications, 2017).

This test addresses T1, His-tagged Proliferating Cell Nuclear Antigen (PCNA) (human, UniProt P12004 1-261).
T1 construct: human PCNA, cloned into the NdeI and XhoI sites of pET28a for expression with an N-terminal His-tag; Used for ITC and for the peptide pull-downs; also called His-tagged PCNA; His-tagged recombinant PCNA; source: E. coli, from pET28a, purified (Ni-NTA, Q-sepharose, Superdex S-200); not shown: His tag, N-terminal, kept
In words: ITC; 15 μM PCNA in the cell, peptides injected stepwise (20 injections of 2 μl), 25 °C, PBS with 1 mM β-mercaptoethanol, single set of independent binding sites model. Particulars: both partners purified.

T1 sequence (P12004 whole entry): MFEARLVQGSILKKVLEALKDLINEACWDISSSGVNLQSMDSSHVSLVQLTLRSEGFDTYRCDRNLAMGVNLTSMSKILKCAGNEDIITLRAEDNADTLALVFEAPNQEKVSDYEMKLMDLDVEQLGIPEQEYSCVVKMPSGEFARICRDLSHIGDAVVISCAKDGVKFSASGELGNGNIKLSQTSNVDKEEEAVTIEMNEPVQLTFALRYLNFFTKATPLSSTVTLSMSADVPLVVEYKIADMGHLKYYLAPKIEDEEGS

For the molecule SKHGSDITRFLVKK [ZRANB3 APIM motif synthetic peptide used for ITC], binding was characterised by a dissociation constant (Kd) of 9.24 µM and the “stoichiometry N” value turned out to be 1 peptide per PCNA monomer.

Turning to EKEKQHDIRSFFVPQ [ZRANB3 PIP box synthetic peptide used for ITC], the Kd was found to be 4.8 µM and the “stoichiometry N” value is 1 peptide per PCNA monomer.

As a reminder, the Kd is a measure of binding affinity in units of concentration. Lower therefore signals higher affinity. Broadly, the stoichiometry N is a count of units in the complex or per binding partner.
